One block for each molecule: values may come before it.
Legend:
[1] = target: Chlamydomonas reinhardtii photosystem I PsaA-Asp648Arg (Chlamydomonas reinhardtii) (UniProt P12154)
pea PsaA = pea PsaA (Pisum sativum (pea), UniProt P05310 16-758); experiment: cryo-EM structure
pea PsaB = pea PsaB (Pisum sativum (pea), UniProt P05311 13-734); experiment: cryo-EM structure
Chain of pea PsaB (P05311 13-734): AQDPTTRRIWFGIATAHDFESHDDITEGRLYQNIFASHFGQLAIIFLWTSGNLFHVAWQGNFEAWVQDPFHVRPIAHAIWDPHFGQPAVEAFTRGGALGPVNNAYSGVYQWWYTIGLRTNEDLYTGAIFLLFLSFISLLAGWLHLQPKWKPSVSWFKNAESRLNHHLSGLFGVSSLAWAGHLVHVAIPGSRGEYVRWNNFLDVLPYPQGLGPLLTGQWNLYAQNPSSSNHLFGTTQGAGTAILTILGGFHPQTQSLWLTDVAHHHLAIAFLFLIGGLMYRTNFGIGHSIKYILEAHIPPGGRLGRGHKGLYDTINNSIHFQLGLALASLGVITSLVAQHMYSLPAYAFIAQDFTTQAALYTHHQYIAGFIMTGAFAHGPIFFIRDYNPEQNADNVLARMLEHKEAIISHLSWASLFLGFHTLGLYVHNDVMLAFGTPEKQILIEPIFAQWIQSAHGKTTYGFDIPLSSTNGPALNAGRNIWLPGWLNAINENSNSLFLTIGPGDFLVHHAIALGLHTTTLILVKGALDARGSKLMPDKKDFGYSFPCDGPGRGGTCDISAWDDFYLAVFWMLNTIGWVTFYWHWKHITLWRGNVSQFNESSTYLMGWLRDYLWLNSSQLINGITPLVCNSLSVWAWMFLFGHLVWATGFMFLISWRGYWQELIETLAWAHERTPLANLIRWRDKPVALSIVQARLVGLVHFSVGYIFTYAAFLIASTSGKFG

Chain of pea PsaA (P05310 16-758): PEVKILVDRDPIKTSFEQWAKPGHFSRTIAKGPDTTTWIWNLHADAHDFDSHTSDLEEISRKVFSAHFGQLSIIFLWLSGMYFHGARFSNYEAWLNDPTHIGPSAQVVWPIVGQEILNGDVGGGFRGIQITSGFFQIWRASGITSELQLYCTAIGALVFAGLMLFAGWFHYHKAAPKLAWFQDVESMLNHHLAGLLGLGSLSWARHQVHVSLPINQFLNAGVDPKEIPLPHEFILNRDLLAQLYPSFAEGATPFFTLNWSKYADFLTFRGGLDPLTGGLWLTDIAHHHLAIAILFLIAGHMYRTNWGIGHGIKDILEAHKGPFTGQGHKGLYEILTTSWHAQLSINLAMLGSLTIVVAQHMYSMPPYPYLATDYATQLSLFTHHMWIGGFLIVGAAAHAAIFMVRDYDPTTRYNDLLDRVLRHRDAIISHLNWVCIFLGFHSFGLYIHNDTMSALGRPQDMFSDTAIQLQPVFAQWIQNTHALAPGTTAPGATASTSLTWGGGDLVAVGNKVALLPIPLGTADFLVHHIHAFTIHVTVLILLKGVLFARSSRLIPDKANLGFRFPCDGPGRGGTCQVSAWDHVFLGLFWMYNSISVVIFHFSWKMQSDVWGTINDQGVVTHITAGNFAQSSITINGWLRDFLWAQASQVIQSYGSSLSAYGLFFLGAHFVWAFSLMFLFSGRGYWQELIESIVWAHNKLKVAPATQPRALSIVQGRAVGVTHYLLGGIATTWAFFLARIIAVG

Molecule: Chlamydomonas reinhardtii plastocyanin (natural protein)
- second-order rate constant of P700+ reduction by Pc (single flash absorption) [1]: 6.54e+07 M⁻¹ s⁻¹

- binding result (pea PsaA): binds
- binding result (pea PsaB): binds
B1: pea plastocyanin (natural protein, pea (Pisum sativum), UniProt P16002 70-168, looked up)
chain: VEVLLGASDGGLAFVPSSLEVSAGETIVFKNNAGFPHNVVFDEDEIPAGVDASKISMPEEDLLNAPGETYSVKLDAKGTYKFYCSPHQGAGMVGQVTVN

Reference: publication PMC8238519 (Biochemical Journal, 2021)
